Results published in patent US12258605B2, “Alkane oxidation by modified hydroxylases” (The California Institute of Technology, priority 2005, dated 2025).

B1: 35-E11: P450 BM-3 variant, SEQ ID NO:7: 53-5H substitutions plus E464G and I710T (protein)
chain: TIKEMPQPKTFGELKNLPLLNTDKPVQALMKIADELGEIFKFEAPGCVTRYLSSQRLIKEACDESRFDKNLSQALKFFRDFSGDGLFTSWTHEINWKKAHNILLPSFSQQAMKGYHAMMVDIAVQLVQKWERLNADEHIEVSEDMTRLTLDTIGLCGFNYRFNSFYRDQPHPFIISMVRALDEVMNKLQRANPDDPAYDENKRQCQEDIKVMNDLVDKIIADRKARGEQSDDLLTQMLNGKDPETGEPLDDGNISYQIITFLIAGHETTSGLLSFALYFLVKNPHVLQKVVEEAARVLVDPVPSYKQVKQLKYVGMVLNEALRLWPTFPAFSLYAKEDTVLGGEYPLEKGDEVMVLIPQLHRDKTIWGDDVEEFRPERFENPSAIPQHAFKPFGNGQRACIGQQFALHEATLVLGMMLKHFDFEDHTNYELDIKETLTLKPEGFVVKAKSKKIPLGGIPSPSTGQSAKKVRKKAENAHNTPLLVLYGSNMGTAEGTARDLADIAMSKGFAPQVATLDSHAGNLPREGAVLIVTASYNGHPPDNAKQFVDWLDQASADEVKGVRYSVFGCGDKNWATTYQKVPAFIDETLAAKGAENIADRGEADASDDFEGTYEEWREHMWSDVAAYFNLDIENSEDNKSTLSLQFVDSAADMPLAKMHGAFSTNVVASKELQQPGSARSTRHLEIELPKEASYQEGDHLGVIPRNYEGTVNRVTARFGLDASQQIRLEAEEEKLAHLPLAKTVSVEELLQYVELQDPVTRTQLRAMAAKTVCPPHKVELEALLEKQAYKEQVLAKRLTMLELLEKYPACEMKFSEFIALLPSIRPRYYSISSSPRVDEKQASITVSVVSGEAWSGYGEYKGIASNYLAELQEGDTITCFISTPQSEFTLPKDPETPLIMVGPGTGVAPFRGFVQARKQLKEQGQSLGEAHLYFGCRSPHEDYLYQEELENAQSEGIITLHTAFSRMPNQPKTYVQHVMEQDGKKLIELLDQGAHFYICGDGSQMAPAVEATLMKSYADVHQVSEADARLWLQQLEEKGRYAKDVWAG
modifications: mutant P450 35-E11 protein sequence
B2: Wild-type BM-3: wild-type cytochrome P450 BM-3 from Bacillus megaterium, SEQ ID NO:1 (protein, listed as Bacillus megaterium)
chain: TIKEMPQPKTFGELKNLPLLNTDKPVQALMKIADELGEIFKFEAPGRVTRYLSSQRLIKEACDESRFDKNLSQALKFVRDFAGDGLFTSWTHEKNWKKAHNILLPSFSQQAMKGYHAMMVDIAVQLVQKWERLNADEHIEVPEDMTRLTLDTIGLCGFNYRFNSFYRDQPHPFITSMVRALDEAMNKLQRANPDDPAYDENKRQFQEDIKVMNDLVDKIIADRKASGEQSDDLLTHMLNGKDPETGEPLDDENIRYQIITFLIAGHETTSGLLSFALYFLVKNPHVLQKAAEEAARVLVDPVPSYKQVKQLKYVGMVLNEALRLWPTAPAFSLYAKEDTVLGGEYPLEKGDELMVLIPQLHRDKTIWGDDVEEFRPERFENPSAIPQHAFKPFGNGQRACIGQQFALHEATLVLGMMLKHFDFEDHTNYELDIKETLTLKPEGFVVKAKSKKIPLGGIPSPSTEQSAKKVRKKAENAHNTPLLVLYGSNMGTAEGTARDLADIAMSKGFAPQVATLDSHAGNLPREGAVLIVTASYNGHPPDNAKQFVDWLDQASADEVKGVRYSVFGCGDKNWATTYQKVPAFIDETLAAKGAENIADRGEADASDDFEGTYEEWREHMWSDVAAYFNLDIENSEDNKSTLSLQFVDSAADMPLAKMHGAFSTNVVASKELQQPGSARSTRHLEIELPKEASYQEGDHLGVIPRNYEGIVNRVTARFGLDASQQIRLEAEEEKLAHLPLAKTVSVEELLQYVELQDPVTRTQLRAMAAKTVCPPHKVELEALLEKQAYKEQVLAKRLTMLELLEKYPACEMKFSEFIALLPSIRPRYYSISSSPRVDEKQASITVSVVSGEAWSGYGEYKGIASNYLAELQEGDTITCFISTPQSEFTLPKDPETPLIMVGPGTGVAPFRGFVQARKQLKEQGQSLGEAHLYFGCRSPHEDYLYQEELENAQSEGIITLHTAFSRMPNQPKTYVQHVMEQDGKKLIELLDQGAHFYICGDGSQMAPAVEATLMKSYADVHQVSEADARLWLQQLEEKGRYAKDVWAG

Columns and labels:
Assay type in all cases: biochemical
[1] = Kinetic constants for n-alkanes: octane
Procedure: Rate measurements. Initial rates of product formation were determined at 25° C. in 100 mM KPi pH 8.0 buffer using purified protein (100 nM) and a substrate concentration of 1.6 mM. In a 5 mL-vial, 20 μL of alkane solution (in ethanol) were dissolved in 400 μL KPi buffer, to which 500 μL enzyme solution at 100-200 nM was added. Reaction was initiated by adding 100 μL of 5 mM NADPH solution, followed by stirring at 300 rpm for 1 minute, and quenched by adding 200 μL chloroform and stirring at 800 rpm for 10 sec. Solutions were transferred to an Eppendorf tube, to which internal standard (10 μL 25 mM 1-bromohexane in ethanol) was added. Tubes were vortexed for 10 sec and centrifuged for 30 sec at 10,000 g. Organic phase was removed and analyzed by GC. For propane, reactions were carried out in a 5 mL-scale using 100-400 nM purified enzyme, propane-saturated buffer (propane concentration≈1.6 mM) and a final NADPH concentration of 500 μM. Reactions were stopped by addition of 200 μL H2SO4 conc. and analyzed by derivatization to alkyl nitrites followed by GC-ECD analysis as described below.
(§1) Products from alkane reactions were identified and quantified by gas chromatography using authentic standards and calibration curves with internal standards. For the reactions with alkanes from pentane to decane, GC analyses were carried out using a Shimadzu GC-17A gas chromatograph, Agilent HP5 column (30 m×0.32 mm×0.1 μm film), 1 μL injection, FID detector, and the following separation program: 250° C. inlet, 250° C. detector, 50° C. oven for 3 min, 5° C./min gradient to 100° C., 25° C./min gradient to 230° C., and 230° C. for 3 min. For butane and propane (TTN) reactions, GC analyses were carried out using a Hewlett-Packard 5890 Series II Plus gas chromatograph, Supelco SPB-1 column (60 m×0.52 mm×0.5 μm film), 0.5 μL injection, FID detector, and the following separation program: 250° C. inlet, 275° C. detector, 80° C. oven for 2 min, 10° C./min gradient to 110° C., 25° C./min gradient to 275° C., and 275° C. for 2.5 min. For ethane and propane (rate) reactions, analysis of reaction mixtures was carried out by derivatization to alkyl nitrites followed by GC-ECD analysis. For laurate, reaction product analysis was carried out by derivatization with N-methyl-N-trimethylsilylheptafluorobutyramide followed by extraction with hexane. Organic solutions were analyzed by FID-GC.
To further investigate the evolution of substrate specificity, kinetic constants for the C5 to C8 alkanes were determined from Michaelis-Menten plots (Table 19). The preference of 35E11 and its evolutionary predecessors for medium-chain alkanes is indicated by their high C8/C5 specificities ((kcat/Km)8/(kcat/Km)5˜100), where Km appears to be the major contributing factor. C8/C5 specificity decreases to ˜5 in the immediate precursors of P450PMO and then switches altogether to the smaller alkane, becoming 0.4 in P450PMO. In P450PMO, catalytic efficiency is highest on propane and decreases along the alkane series, driven by decreasing kcat.

[2] = Reactions on alkanes, total turnovers (Table 18): ethane; details: ethane (2 C atoms); for % rel. act.: TTN normalized to the highest value of the variant's series; for TTN: total turnovers, standardized reaction conditions
Procedure: (§2) Reactions on alkanes. Reactions with alkanes from pentane to decane were carried out at 3 mL-scale using 100 mM KPi pH 8.0 buffer containing 2% ethanol (to allow alkane solubilization) and purified protein. 2.5 mL KPi buffer were added with 60 μL of 90 mM alkane solution in ethanol (final conc.=1.8 mM), 150 μL enzyme solution at 1 μM (final conc.=50 nM), and 300 μL NADPH regeneration solution (100 units/mL isocitrate dehydrogenase, 70 mg/mL isocitrate, 1.5 mg/ml NADP^+). Vials were sealed and stirred for 24 hours at 4° C. 1 mL-aliquot of the reaction was removed, added with 10 μl internal standard (25 mM 1-bromohexane in ethanol), and extracted with 200 μl chloroform (30 sec vortexing, 1 min centrifugation at 10000 g). The organic phase was removed and analyzed by gas chromatography. Reactions with ethane, propane, and butane were carried out as described for longer alkanes with the only difference that alkane-saturated KPi buffer was used. Propane reactions with variants from HL5 and L9 libraries were performed on 1 mL-scale reaction using 20 nM enzyme to reduce oxygen limitation. Propane and butane reactions were analyzed by direct injection of reaction solution on the GC using 1-pentanol as internal standard. Ethane reaction products were functionalized (see below) and analyzed by GC using 1-butanol as internal standard. All measurements were performed in triplicate.
as §1
(§3) TTNs for each variant-substrate pair were determined using standardized reaction conditions (identical enzyme and substrate concentration, incubation time, cofactor regeneration system) (Table 18). TTN values were used to assess performance because TTN is a cumulative measure of both catalytic and coupling efficiency and because mutants were selected based on improvement in this property. To facilitate comparison among the variants, TTNs were normalized to the highest value in the series (MTN=Maximal Turnover Number) and plotted for the increasing-sized substrates (FIG. 38). A gradual shift of the enzyme's substrate preference during laboratory evolution is evident from these profiles. The marginal activity of wild-type BM3 on these substrates (MTN=150) is restricted to the long-chain alkanes, where it is a promiscuous function of BM3's high C12-C20 fatty acid hydroxylase activity. In the first evolutionary intermediates, substrate preference centers on medium-chain alkanes […], reflecting their selection for activity on octane. In 35E11, selected for activity on propane, preference still centers on C6-C8 alkanes but now extends towards the shorter ones, including propane. Propane activity becomes prevalent with the transition from variant ETS8 to 19A12. […]

[3] = Reactions on alkanes, total turnovers (Table 18): propane; details: propane (3 C atoms); for % rel. act.: TTN normalized to the highest value of the variant's series; for TTN: total turnovers, standardized reaction conditions
Procedure: as §2, §1
Because 35E11 was only marginally stable, the engineering strategy described herein (see below) involved an initial stabilization step followed by iterative rounds of mutagenesis and screening. Random, saturation and site-directed mutagenesis methods were used to create libraries of mutants (FIG. 35), which were screened for activity on a propane surrogate, dimethyl ether. Positives were confirmed in a re-screen and purified for further analysis. Reactions with purified enzymes were carried out in sealed vials in the presence of propane-saturated buffer and a cofactor regeneration system. Improvement in propane total turnover number-moles of propanol produced per mole of enzyme—was a selection criterion for taking a mutant to the next round.
TTNs for each variant-substrate pair were determined using standardized reaction conditions (identical enzyme and substrate concentration, incubation time, cofactor regeneration system) (Table 18). TTN values were used to assess performance because TTN is a cumulative measure of both catalytic and coupling efficiency and because mutants were selected based on improvement in this property. […]

[4] = Reactions on alkanes, total turnovers (Table 18): hexane; details: hexane (6 C atoms); for % rel. act.: TTN normalized to the highest value of the variant's series; for TTN: total turnovers, standardized reaction conditions
Procedure: as §2, §1, §3

| Molecule | Km [1] [µM] | kcat [1] [s⁻¹] | % rel. act. [2] [%] | TTN [2] | % rel. act. [3] [%] | TTN [3] | % rel. act. [4] [%] | TTN [4] |
| --- | --- | --- | --- | --- | --- | --- | --- | --- |
| B1 | 85 ± 25 | 6.5 ± 1.58 | 3.5 | 220 ± 30 | 71.7 | 4550 ± 350 | 100.0 | 6350 ± 384 |
| B2 | > 5000 | <0.083 | 0.0 | 0 | 0.0 | 0 | 6.3 | 10 ± 4 |
